Assay: yeast display, Sf9 membrane polyspecificity reagent, FACS + sequencing; frameworks hold sequencing errors
Outline: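 Galactose induction of a Saccharomyces cerevisiae BJ5465 synthetic nanobody display library ran 36–48 hours. The cells were then stained for 1 hour at 4 °C with 10% biotinylated, detergent-solubilized Sf9 membrane reagent, pulled down on streptavidin microbeads and FACS-sorted into low and high (top ~1%) gates on expression and reagent-binding fluorescence. Labels for polyreactivity follow the gate of origin.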

| Sequence | polyreactivity (PSR sort gate) |
| --- | --- |
| RVQLQESGGGLVQAGGSLRLSCAASGTIFIRGDMGWYRQAPGKEREFVATIDTGSNTYYADSEKGRFTISRDNAKNAVYLQMNCQQPGDTAVYYCVVDYQLSGRLRYWGQGTQVTLSS | low polyreactivity |
| RVQLQESGGGLVQAGGSLRLSCAPSSTISRYFYMGWYRQAPGKEREFVASITYGASTNYADSVKGRFTISRDNAKNTVYLQMNSLKPEDTAVYYCNAKQQPYGGTDYDYWGQGTQVTVSS | low polyreactivity |
| RVQLQESGGGLVQAGGSLRLSCEASGTIFIRGDMGWYRQATGKEREFVATIDTGSNTYYADSEKGRFTISRDNAKNAVYLQMNCLKPGDTAVYYCVVDYQLSGRLRYWGQGTQVTLSS | low polyreactivity |
| RVQLVESGGGLVQAGGSLRLSCAASGFTIQRYAMGWYRQAPGKVRELVAGITGGGNTKYADSVKGRFTISRDNAKNTVYLQMNSLKPEDTAVYYCAARGGVPRGKFGYDYWGQGTQVTVSS | high polyreactivity |
| VVQLVESGGGLVQAGGRLRLSCAASGIIFGRYAMGWYRQAPGKERELVASITGNGSTTYYADSVKGRFTISRDNAKNTVYLQMNSLKPDDTAGYYCAADIVVGSPSAEFDYWGQGTQVTVSS | low polyreactivity |
| YYADSVKGLFTISRDNAKNTVYLQMNSLNPEDTAVYYCNAGYYISFNPYDYWGQGTQVTVSS | low polyreactivity |

Reference: the nanobody polyreactivity screen of Harvey et al. (2022)
